Here are results for 3 molecules from US20050260565A1 (ICOS, published 2005).

The target in experiment [1] is T1, FLAG-tagged 88C receptor (human, UniProt P51681 1-352).
T1 sequence: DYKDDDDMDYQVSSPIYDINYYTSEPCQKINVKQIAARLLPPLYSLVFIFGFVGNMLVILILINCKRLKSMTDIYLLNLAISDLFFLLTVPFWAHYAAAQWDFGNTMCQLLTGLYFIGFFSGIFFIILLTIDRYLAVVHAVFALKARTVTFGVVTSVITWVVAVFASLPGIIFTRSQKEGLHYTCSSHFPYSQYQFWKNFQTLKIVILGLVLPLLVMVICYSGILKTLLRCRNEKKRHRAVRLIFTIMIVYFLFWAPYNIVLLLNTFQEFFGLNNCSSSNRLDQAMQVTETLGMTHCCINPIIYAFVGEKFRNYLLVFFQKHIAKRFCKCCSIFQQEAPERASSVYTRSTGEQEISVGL
In words: cell-based or functional assay.

The target of experiment [2] is T1, FLAG-tagged 88C receptor. In words: competition of the unlabeled ligand with 1.5 nM 125I-MIP-1β on HEK-293 cells expressing FLAG-tagged 88C. The text has this:
(§1) Another assay for receptor interaction with chemokines was a modification of the binding assay described by Ernst et al., J. Immunol. 152:3541-3549 (1994). MIP-1β as labeled using the Bolton and Hunter reagent (di-iodide, NEN, Wilmington, Del.), according to the manufacturer's instructions. Unconjugated iodide was separated from labeled protein by elution using a PD-10 column (Pharmacia) equilibrated with PBS and BSA (1% w/v). The specific activity was typically 2200 Ci/mmole. Equilibrium binding was performed by adding ¹²⁵I-labeled ligand with or without a 100-fold excess of unlabeled ligand, to 5×10⁵ HEK-293 cells transfected with 88C tagged with the FLAG epitope in polypropylene tubes in a total volume of 300 μl (50 mM HEPES pH 7.4, 1 mM CaCl₂, MgCl₂, 0.5% BSA) and incubating for 90 minutes at 27° C. with shaking at 150 rpm. The cells were collected, using a Skatron cell harvester (Skatron Instruments Inc., Sterling, Va.), on glass fiber filters presoaked in 0.3% polyethyleneimine and 0.2% BSA. After washing, the filters were removed and bound ligand was quantitated by counting gamma emissions. Ligand binding by competition with unlabeled ligand was determined by incubation of 5×10⁵ transfected cells (as above) with 1.5 nM of radiolabeled ligand and the indicated concentrations of unlabeled ligand. The samples were collected, washed and counted as above. The data was analyzed using the curve-fitting program Prism (GraphPad Inc., San Diego, Calif.) and the iterative non-linear regression program, LIGAND (PM220).
In equilibrium binding assays, 88C receptor bound radiolabeled MIP-1β in a specific and saturable manner.

Experiment [3] addresses T1, FLAG-tagged 88C receptor. In words: equilibrium binding of 125I-MIP-1β to HEK-293 cells expressing FLAG-tagged 88C, Scatchard analysis.
Excerpt: as §1, with “The cells were collected, using a Skatron cell harvester (Skatron Instruments Inc., Sterling, Va.), on glass fiber filters presoaked in 0.3% polyethyleneimine and 0.2% BSA.” left out, “(PM220). […]” for “(PM220).”

B1: MIP-1α (ligand, UniProt P10147 24-92, looked up)
chain: SLAADTPTACCFSYTSRQIPQNFIADYFETSSQCSKPGVIFLTKRSRQVCADPSEEWVQKYVSDLELSA
Broadly, the IC50 is the concentration that inhibits the measured activity by half. A high value points to a need for much substance. With B1, the “EC50 of inositol phosphate formation (dose-response curves)” value (from here on “EC50 of inositol phosphate formation”) with FLAG-tagged 88C receptor [1] is 22 nM. The IC50 in the experiment with FLAG-tagged 88C receptor [2] came to 7.4 nM.

B2: MIP-1β (ligand, UniProt P13236 24-92, looked up)
chain: APMGSDPPTACCFSYTARKLPRNFVVDYYETSSLCSQPAVVFQTKRSKQVCADPSESWVQEYVYDLELN
modifications: ends and bridges not checked; also: 125I label (Bolton and Hunter reagent) where used as radiolabeled ligand
For orientation: Kd means the equilibrium constant for the complex coming apart. A lower Kd goes with higher affinity. B2: the “EC50 of inositol phosphate formation” value with FLAG-tagged 88C receptor [1] came out at 6 nM. In the experiment with FLAG-tagged 88C receptor [3], this molecule came in with a Kd of 1.6 nM. Also, the IC50 with FLAG-tagged 88C receptor [2] was 7.4 nM.

B3: RANTES (Regulated on Activation, Normal T Expressed and Secreted) (ligand, UniProt P13501 24-91, looked up)
chain: SPYSSDTTPCCFAYIARPLPRAHIKEYFYTSGKCSNPAVVFVTRKNRQVCANPEKKWVREYINSLEMS
With B3, the “EC50 of inositol phosphate formation” value in the experiment with FLAG-tagged 88C receptor [1] came out at 1 nM. The molecule further came in with an IC50 with FLAG-tagged 88C receptor [2] of 6.9 nM.
